From patent publication US11591580B2, “K85 mutation-containing plant EPSPS mutant, and encoding gene and application thereof” (GEVOTO LLC, priority 2017, dated 2023)

Columns and labels:
double knockout E. coli = test: growth of E. coli transformed by genes encoding maize EPSPS (wild type and mutants) in culture media containing different glyphosate concentrations (Example 6, FIG. 2); type: cell-based
Text: E. coli transformed by the gene (SEQ ID NO: 9, which encoded the wild-type maize EPSPS represented by SEQ ID NO: 10) encoding the wild-type maize EPSPS was taken as a control group.
E. coli transformed by the gene (SEQ ID NO: 11, which encoded SEQ ID NO: 12) encoding the maize EPSPS mutant I that contained only a single mutation K94(85)I, was taken as Experiment Group 1.
E. coli transformed by the gene (with a nucleotide sequence represented by SEQ ID NO: 13, and the amino acid sequence of the encoded three-mutation maize EPSPS mutant is represented by SEQ ID NO: 14) encoding the maize EPSPS mutant that contained only three mutations G105(96)A, P110(101)S and K207(194)R but no mutation K94(85)I, was taken as Experiment Group 2.
E. coli transformed by the gene (SEQ ID NO: 15) encoding the maize EPSPS mutant (containing four mutations: K94(85)I, G105(96)A, P110(101)S and K207(194)R) provided in Example 3 was taken as Experiment Group 3.
The glyphosate resistance of the gene encoding the maize EPSPS mutant and the maize EPSPS mutant encoded thereby in the E. coli was verified by detecting the growth situation of the transformed E. coli in culture media containing different glyphosate concentrations (0, 1, 20, 50 mM). In the above, the E. coli used is double knockout E. coli.
Results are as shown in FIG. 2 (wherein Z0 represents a control group, Z1 represents Experiment Group 1, Z2 represents Experiment Group 2, and Z3 represents Experiment Group 3).

[1] = system: transgenic rice seedlings; test: glyphosate resistance of the EPSPS mutant in transgenic rice plants sprayed with glyphosate (Example 8, Table 1); type: in vivo, rice (Nipponbare); conditions: for survival of transformed rice seedlings (in words): 2× and 5× glyphosate dosages; for glyphosate resistance of transformed rice seedlings (in words): glyphosate sprayed at the 1× dosage
Text: A method for detecting the glyphosate resistance of the G1 soybean EPSPS mutant (SEQ ID NO: 20), G2 soybean EPSPS mutant (SEQ ID NO: 22) and G3 soybean EPSPS mutant (SEQ ID NO: 24) provided in Example 7, the R1 rice EPSPS mutant (SEQ ID NO: 4) provided in Example 5, and the Z1 maize EPSPS mutant (SEQ ID NO: 12) provided in Example 6 in the transgenic rice is as follows:
The plasmids (containing the EPSPS mutant gene) of the monoclonal resistant bacteria of pADV5-EPSPS in Examples 1-7 were extracted by a conventional method, followed by double enzyme digestion by Pac1 and BstEII, the small fragments were collected, and then the small fragments were ligated, using T4 DNA ligase, to the pGVP1 vectors that had undergone the same double enzyme digestion, to obtain a pGVP1-EPSPS vector having a structure as shown in FIG. 8.
In the present example, the glyphosate resistance of the EPSPS mutant in transgenic rice plants were verified. An experiment method is as follows:
The transgenic rice seedlings transplanted were uniformly arranged in a same experiment area (preventing leaves from overlapping). The areas occupied by the experiment groups and the control group were calculated, and according to the areas, glyphosate was sprayed at a 1× dosage of 1060 g/hectare (0.106 g/m^2). 2× dosage was 2120 g/hectare, 5× dosage was 5300 g/hectare, and 20× dosage was 21200 g/hectare.
Commercially available Roundup® 41% ammonium glyphosate was used. Roundup® ammonium glyphosate with corresponding volumes was taken according to the above sprayed concentrations, then diluted with 20 times of volume of water, and then uniformly sprayed on the plants in the experiment groups and the control group. After leaf surfaces were dry, the plants were moved into greenhouse or outdoor to cultivate.
After the glyphosate was sprayed at the 1× dosage, growth states of the plants in each group were observed and recorded on a 10th day, and glyphosate was sprayed to the survived plants at the 2× dosage. The growth states of the plants in each group were observed and recorded 10 days later, and glyphosate was sprayed to the survived plants at the 5× dosage. The growth states of the plants in each group were observed and recorded 10 days later, and glyphosate was sprayed to the survived plants at the 20× dosage. The growth states of the plants in each group were observed and recorded 10 days later, and results are shown in Table 1, wherein corresponding numbers of plants denoted by −, +, ++ and +++ are listed, and “%++&+++” is percentage of plant having medium and high glyphosate resistance to the total number of plants observed.

[2] = culture media containing 1 mM glyphosate
[3] = 1X dosage (1060 g/hectare glyphosate), recorded on 10th day
[4] = 2X dosage (2120 g/hectare) sprayed to plants surviving 1X, recorded 10 days later
[5] = 5X dosage (5300 g/hectare) sprayed to plants surviving 2X, recorded 10 days later
[6] = 20X dosage (21200 g/hectare) sprayed to plants surviving 5X, recorded 10 days later

Molecule	growth of transformed E. coli (double knockout E. coli; [2])	% ++&+++ (percentage of plant having medium and high glyphosate resistance to the total number of plants observed) [1, 3]	number of plants with resistance + (low glyphosate resistance) [1, 3]	number of plants with resistance ++ (medium glyphosate resistance) [1, 3]	number of plants with resistance +++ (high glyphosate resistance) [1, 3]	number of plants with resistance − (no glyphosate resistance) [1, 3]	% ++&+++ (percentage of plant having medium and high glyphosate resistance to the total number of plants observed) [1, 4]	number of plants with resistance + (low glyphosate resistance) [1, 4]	number of plants with resistance ++ (medium glyphosate resistance) [1, 4]	number of plants with resistance +++ (high glyphosate resistance) [1, 4]	number of plants with resistance − (no glyphosate resistance) [1, 4]	survival of transformed rice seedlings (in words) [1]	% ++&+++ (percentage of plant having medium and high glyphosate resistance to the total number of plants observed) [1, 5]	number of plants with resistance + (low glyphosate resistance) [1, 5]	number of plants with resistance ++ (medium glyphosate resistance) [1, 5]	number of plants with resistance +++ (high glyphosate resistance) [1, 5]	number of plants with resistance − (no glyphosate resistance) [1, 5]	% ++&+++ (percentage of plant having medium and high glyphosate resistance to the total number of plants observed) [1, 6]	number of plants with resistance + (low glyphosate resistance) [1, 6]	number of plants with resistance ++ (medium glyphosate resistance) [1, 6]	further results
Z1: maize EPSPS mutant I, SEQ ID NO: 12, containing only a single mutation K94(85)I (protein, Zea mays EPSPS mutant with mutation K94(85)I) MAVQAGAEEIVLQPIKEISGTVKLPGSKSLSNRILLLAALSEGTTVVDNLLNSEDVHYMLGALRTLGLSVEADKAAKRAVVVGCGGKFPVEDSIEEVQLFLGNAGTAMRPLTAAVTAAGGNATYVLDGVPRMRERPIGDLVVGLKQLGADVDCFLGTDCPPVRVNGIGGLPGGKVKLSGSISSQYLSALLMAAPLALGDVEIEIIDKLISIPYVEMTLRLMERFGVKAEHSDSWDRFYIKGGQKYKSPKNAYVEGDASSASYFLAGAAITGGTVTVEGCGTTSLQGDVKFAEVLEMMGAKVTWTETSVTVTGPPREPFGRKHLKAIDVNMNKMPDVAMTLAVVALFADGPTAIRDVASWRVKETERMVAIRTELTKLGASVEEGPDYCIITPPEKLNVTAIDTYDDHRMAMAFSLAACAEVPVTIRDPGCTRKTFPDYFDVLSTFVKN	obviously superior to that of the control group (Z0)	10.5%	1	2	0	16	0.0%	3	0	0	16	some of the rice seedlings transformed by the maize EPSPS mutant Z1 survived	0.0%	2	0	0	17	0.0%	0	0	growth of transformed E. coli (double knockout E. coli; culture media containing 0 mM glyphosate and 1 mM glyphosate): obviously superior to that of control group (Z0); number of plants with resistance +++ (high glyphosate resistance) [1, 6]: 0; number of plants with resistance − (no glyphosate resistance) [1, 6]: 19; glyphosate resistance of transformed rice seedlings (in words) [1]: obviously superior to that of Z0
Z0: wild-type maize EPSPS represented by SEQ ID NO: 10; control group of Example 6 (protein, Zea mays) MAVQAGAEEIVLQPIKEISGTVKLPGSKSLSNRILLLAALSEGTTVVDNLLNSEDVHYMLGALRTLGLSVEADKAAKRAVVVGCGGKFPVEDSKEEVQLFLGNAGTAMRPLTAAVTAAGGNATYVLDGVPRMRERPIGDLVVGLKQLGADVDCFLGTDCPPVRVNGIGGLPGGKVKLSGSISSQYLSALLMAAPLALGDVEIEIIDKLISIPYVEMTLRLMERFGVKAEHSDSWDRFYIKGGQKYKSPKNAYVEGDASSASYFLAGAAITGGTVTVEGCGTTSLQGDVKFAEVLEMMGAKVTWTETSVTVTGPPREPFGRKHLKAIDVNMNKMPDVAMTLAVVALFADGPTAIRDVASWRVKETERMVAIRTELTKLGASVEEGPDYCIITPPEKLNVTAIDTYDDHRMAMAFSLAACAEVPVTIRDPGCTRKTFPDYFDVLSTFVKN	weak	0.0%	4	0	0	16	0.0%	0	0	0	20	no rice transformed by the wild-type maize EPSPS Z0 survived	0.0%	0	0	0	20	0.0%	0	0	number of plants with resistance +++ (high glyphosate resistance) [1, 6]: 0; number of plants with resistance − (no glyphosate resistance) [1, 6]: 20; glyphosate resistance of transformed rice seedlings (in words) [1]: no plant having medium or high glyphosate resistance
